Reference: the Human Domainome abundance scans (Beltran et al. 2025)
± gives the uncertainty stated by the source.

B1: Far upstream element-binding protein 3, residues 75 to 150; numbered along this chain, Q96I24 (parent)
chain: RTVITEEFKVPDKMVGFIIGRGGEQISRIQAESGCKIQIASESSGIPERPCVLTGTPESIEQAKRLLGQIVDRCRN

Variants of: B1
Test: abundance fitness (aPCA) (normalised: wild type 0, dead -1); higher = more abundant; growth selection in yeast, the domain comes from the species named
Settings: Homo sapiens

In order of rising abundance fitness:
1. G55V  -1.38 ± 0.066
2. G55N  -0.989 ± 0.1
3. I60G  -0.988 ± 0.038
4. L67W  -0.981 ± 0.059
5. C35W  -0.895 ± 0.054
6. L67K  -0.834 ± 0.07
7. I37H  -0.816 ± 0.087
8. L67E  -0.757 ± 0.051
9. G68P  -0.723 ± 0.061
10. G20V  -0.707 ± 0.034
11. V10Q  -0.675 ± 0.047
12. I37Q  -0.665 ± 0.048
13. V10E  -0.631 ± 0.039
14. I29P  -0.625 ± 0.051
15. I29Q  -0.599 ± 0.052
16. S33F  -0.591 ± 0.072
17. I29Y  -0.579 ± 0.071
18. I37T  -0.505 ± 0.047
19. L53A  -0.473 ± 0.045
20. I26E  -0.436 ± 0.037
21. I39Q  -0.399 ± 0.041
22. L67C  -0.397 ± 0.046
23. V15P  -0.37 ± 0.049
24. C51S  -0.366 ± 0.04
25. F8N  -0.353 ± 0.074
26. I60M  -0.343 ± 0.046
27. T5L  -0.314 ± 0.044
28. T5G  -0.3 ± 0.028
29. I18N  -0.295 ± 0.056
30. I18G  -0.272 ± 0.027
31. G34L  -0.264 ± 0.036
32. I18Y  -0.261 ± 0.065
33. G20H  -0.243 ± 0.067
34. S27P  -0.232 ± 0.05
35. N76K  -0.183 ± 0.079
36. I60N  -0.182 ± 0.07
37. Q69F  -0.181 ± 0.062
38. V71W  -0.175 ± 0.035
39. F8H  -0.173 ± 0.071
40. L66W  -0.17 ± 0.033
41. G23C  -0.17 ± 0.04
42. A31W  -0.168 ± 0.03
43. V3G  -0.166 ± 0.025
44. E48I  -0.162 ± 0.054
45. G45I  -0.158 ± 0.06
46. V15T  -0.158 ± 0.038
47. R49N  -0.155 ± 0.059
48. G34H  -0.155 ± 0.064
49. D12Q  -0.155 ± 0.043
50. L66H  -0.148 ± 0.052
51. R21F  -0.147 ± 0.055
52. N76Q  -0.145 ± 0.11
53. R28L  -0.143 ± 0.033
54. R49I  -0.141 ± 0.07
55. Q25L  -0.138 ± 0.033
56. E48A  -0.137 ± 0.031
57. P11T  -0.136 ± 0.041
58. L53M  -0.134 ± 0.045
59. A31F  -0.127 ± 0.055
60. L66D  -0.123 ± 0.049
61. V10M  -0.122 ± 0.039
62. P50F  -0.119 ± 0.052
63. V15K  -0.119 ± 0.043
64. V71S  -0.118 ± 0.037
65. T2C  -0.114 ± 0.046
66. P50Y  -0.113 ± 0.048
67. E24L  -0.112 ± 0.031
68. A40Y  -0.112 ± 0.062
69. V3D  -0.111 ± 0.049
70. E61W  -0.111 ± 0.036
71. Q30T  -0.11 ± 0.043
72. E48Q  -0.108 ± 0.04
73. D72W  -0.108 ± 0.035
74. V52F  -0.107 ± 0.061
75. T56R  -0.107 ± 0.027
76. R75I  -0.107 ± 0.067
77. I29M  -0.105 ± 0.038
78. Q38G  -0.105 ± 0.024
79. R73F  -0.103 ± 0.059
80. T54Y  -0.102 ± 0.071
81. I70W  -0.102 ± 0.035
82. K36V  -0.101 ± 0.032
83. T56C  -0.097 ± 0.04
84. I4F  -0.095 ± 0.049
85. D12G  -0.095 ± 0.027
86. T56P  -0.094 ± 0.036
87. R65C  -0.092 ± 0.043
88. E58N  -0.091 ± 0.093
89. R49C  -0.091 ± 0.049
90. R73W  -0.089 ± 0.039
91. G23S  -0.087 ± 0.031
92. D72M  -0.084 ± 0.042
93. D72L  -0.083 ± 0.033
94. G34R  -0.079 ± 0.03
95. S33C  -0.079 ± 0.039
96. E61C  -0.078 ± 0.042
97. P47N  -0.077 ± 0.054
98. I19A  -0.074 ± 0.034
99. V71E  -0.073 ± 0.034
100. T5H  -0.071 ± 0.074
101. C51M  -0.068 ± 0.043
102. G45P  -0.067 ± 0.037
103. R21G  -0.064 ± 0.027
104. R28T  -0.064 ± 0.039
105. S43A  -0.064 ± 0.039
106. G16T  -0.063 ± 0.037
107. I46D  -0.061 ± 0.046
108. G68T  -0.06 ± 0.039
109. S44F  -0.06 ± 0.062
110. P47G  -0.058 ± 0.025
111. K9C  -0.057 ± 0.041
112. K9T  -0.057 ± 0.038
113. E48Y  -0.056 ± 0.057
114. I70S  -0.055 ± 0.034
115. P50C  -0.054 ± 0.047
116. D72A  -0.052 ± 0.029
117. Q30S  -0.051 ± 0.037
118. E48M  -0.048 ± 0.038
119. Q38T  -0.047 ± 0.044
120. E58G  -0.047 ± 0.03
121. R65Y  -0.046 ± 0.052
122. G22A  -0.045 ± 0.031
123. E32L  -0.044 ± 0.03
124. G68N  -0.043 ± 0.069
125. Q62R  -0.043 ± 0.03
126. P47L  -0.043 ± 0.03
127. P47V  -0.041 ± 0.03
128. E42T  -0.04 ± 0.041
129. A40L  -0.038 ± 0.03
130. P47E  -0.037 ± 0.034
131. C74V  -0.037 ± 0.03
132. S43D  -0.036 ± 0.056
133. V10I  -0.036 ± 0.056
134. I70L  -0.035 ± 0.034
135. R1H  -0.034 ± 0.14
136. K9F  -0.031 ± 0.056
137. V3E  -0.029 ± 0.035
138. P47H  -0.028 ± 0.05
139. F17V  -0.028 ± 0.031
140. N76Y  -0.027 ± 0.095
141. S41P  -0.027 ± 0.041
142. E61K  -0.026 ± 0.041
143. I19L  -0.024 ± 0.033
144. R28A  -0.024 ± 0.029
145. I70C  -0.023 ± 0.039
146. Q62S  -0.023 ± 0.03
147. P47I  -0.021 ± 0.051
148. V71I  -0.018 ± 0.067
149. S27E  -0.014 ± 0.043
150. P57R  -0.013 ± 0.031
151. S59N  -0.013 ± 0.082
152. P57K  -0.009 ± 0.056
153. E24A  -0.008 ± 0.033
154. Q38V  -0.007 ± 0.028
155. V52S  -0.005 ± 0.036
156. R65Q  -0.004 ± 0.04
157. S27G  0.004 ± 0.031
158. G22N  0.006 ± 0.062
159. N76P  0.007 ± 0.059
160. C74R  0.008 ± 0.027
161. S41Q  0.012 ± 0.041
162. K13Y  0.022 ± 0.06
163. I70V  0.024 ± 0.031
164. P47S  0.024 ± 0.034
165. I70Y  0.044 ± 0.052
166. S41K  0.058 ± 0.04
167. E24Y  0.062 ± 0.053
